What was measured:
[1] = molecular target: T1, MICA expressed on CHO-K1-MICA cells (human, UniProt Q29983 24-383); experiment: Western blot of CHO-K1-MICA lysate
T1 construct: Full-length entry as expressed from the lentiviral vector
T1 sequence: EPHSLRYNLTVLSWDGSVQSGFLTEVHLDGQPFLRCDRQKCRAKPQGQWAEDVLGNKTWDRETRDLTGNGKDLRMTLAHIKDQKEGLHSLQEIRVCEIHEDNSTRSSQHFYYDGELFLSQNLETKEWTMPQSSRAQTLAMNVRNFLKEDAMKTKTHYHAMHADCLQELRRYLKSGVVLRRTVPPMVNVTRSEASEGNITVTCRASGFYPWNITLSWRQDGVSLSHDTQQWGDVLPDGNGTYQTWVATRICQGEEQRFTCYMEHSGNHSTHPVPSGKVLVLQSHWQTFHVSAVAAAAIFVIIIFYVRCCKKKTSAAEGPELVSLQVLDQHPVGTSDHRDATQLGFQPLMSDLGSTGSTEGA
Method: The Western blot assay was used to determine the antigenic epitope characteristics of the MICA antibody.
CHO-K1-MICA, CHO-K1 cells constructed in Example 4 were washed twice with PBS. The RIPA lysate was then added for lysis for 15 min on ice. After 5 min of centrifugation at 15,000 g at 4° C., the supernatant was collected. The lysate supernatant was subjected to protein quantification using a BCA kit. Sample was then prepared with SDS-PAGE loading buffer and the sample addition amount is 50 μg/well. After electrophoresis, the sample was transferred to a nitrocellulose membrane and blocked with 5% nonfat dried milk at room temperature for 1 h. MICA antibody diluted at 1:2000 (w/v) was then added and incubated overnight at 4° C. The membrane was washed 5 min×6 times with 1%% PBST, then HRP-goat anti-mouse IgG diluted at 1:5000 (v/v) was added and incubated at room temperature for 1 h. The membrane was washed 5 min×6 times with 1%% PBST. Chemiluminescence was detected using ECL substrate development. The results are shown in FIG. 8, further showing that the antibody of the present disclosure can bind to a linear epitope of MICA protein.

[2] = molecular target: T2, MICA*002α3-Fc fusion protein; experiment: ELISA, MICA*002α3-Fc coated
T2 construct: also called MICAα3*002 variant
Source text: (§1) The binding characteristics of the MICA antibody and the α3 domains of MICA and MICB was detected by ELISA in this example. The obtained various MICA, MICB variant extracellular region α3 domains (MICAα3*-002, 004, 005, 008, MICBα3*-005) Fc fusion proteins (MICAα3-Fc, MICBα3-Fc) and control antibody IgG were coated into a 96-well plate by the inventors. The signal strength after antibody addition was used to determine the binding characteristics of the antibody to MICA and MICB.
(§2) The fusion protein (MICA*002α3-Fc, amino acid sequence is as set forth in SEQ ID NO: 33; MICA*004α3-Fc, the amino acid sequence is as set forth in SEQ ID NO: 34; MICA*005α3-Fc, the amino acid sequence is as set forth in SEQ ID NO: 35; MICA*008α3-Fc, the amino acid sequence is as set forth in SEQ ID NO: 36; MICB*005α3-Fc, the amino acid sequence is as set forth in SEQ ID NO: 37) was diluted to 1 μg/ml with the PBS buffer and added to a 96-well plate in a volume of 100 μL/well and left overnight at 4° C. The PBS buffer solution was sucked off from the 96-well plate. The plate was washed 6 times with PBST (pH 7.2, PBS containing 0.1% Tween 20) buffer solution. 200 μL/well PBS/10% BSA was added and incubated at 37° C. for 2 hours for blocking. The blocking solution was removed. The plate was washed 6 times with PBST. […] The absorbance at […] was read with a microplate reader. […]

[3] = molecular target: T3, MICA*004α3-Fc fusion protein; experiment: ELISA, MICA*004α3-Fc coated
T3 construct: also called MICAα3*004 variant
Source text: as §1, §2

[4] = molecular target: T4, recombinant MICA extracellular region Fc fusion protein (MICA-Fc) (human); experiment: ELISA, MICA-Fc coated
T4 construct: also called human MICA
Method: The ELISA assay was used to detect the binding characteristics of the MICA antibody obtained in Example 1. The MICA extracellular region Fc fusion protein (MICA-Fc) as described above was coated into a 96-well plate. The signal strength after antibody addition was used to determine the binding characteristics of the antibody to MICA.
The MICA-Fc fusion protein (amino acid sequence as set forth in SEQ ID NO: 23) was diluted to 1 μg/mL with PBS buffer and added to a 96-well plate in a volume of 100 μL/well and left overnight at 4° C. The PBS buffer solution was sucked off from the 96-well plate. The plate was washed 6 times with PBST (pH 7.2, PBS containing 0.1% Tween 20) buffer solution. 200 μL/well PBS/10% BSA was added and incubated at 37 °C for 2 hours for blocking. The blocking solution was removed. The plate was washed 6 times with PBST. The MICA antibody to be tested was diluted to an appropriate concentration with 100 μL/well PBST/0.05% BSA, and incubated for 1 h at 37° C. The reaction system was removed. The plate was washed 6 times with PBST. HRP (horseradish peroxidase)-labeled anti-mouse antibody secondary antibody (Boster, BA1050) was diluted with PBST/0.05% BSA at 100 μL/well and incubated for 1 h at 37° C. After the incubation, the plate was washed 6 times with PBST, and 80 μL/well TMB (tetramethylbenzidine) was added. […] The absorbance at […] was read with a microplate reader.

[5] = molecular target: T5, MICA*008α3-Fc fusion protein; experiment: ELISA, MICA*008α3-Fc coated
T5 construct: also called MICAα3*008 variant
Source text: as §1, §2

[6] = molecular target: T6, MICA extracellular domain α3 domain Fc fusion protein (MICA α3-Fc) (human); experiment: ELISA, MICAα3-Fc coated
T6 construct: also called MICA α3 domain
Method: The MICAα3-Fc fusion protein (amino acid sequence as set forth in SEQ ID NO: 24) was diluted to 1 μg/mL with PBS buffer and added to a 96-well plate in a volume of 100 μL/well and left overnight at 4° C. The PBS buffer solution was sucked off from the 96-well plate. The plate was washed 6 times with PBST (pH 7.2, PBS containing 0.1% Tween 20) buffer solution. 200 μL/well PBS/10% BSA was added and incubated at 37 °C for 2 hours for blocking. The blocking solution was removed. The plate was washed 6 times with PBST. The MICA antibodies to be tested were diluted to an appropriate concentration with 100 µL/well PBST/0.05% BSA, and incubated at 37 °C for 1 h. The reaction system was removed. The plate was washed 6 times with PBST. HRP (horseradish peroxidase)-labeled anti-mouse antibody secondary antibody (Boster, BA1050) was diluted with PBST/0.05% BSA at 100 μL/well and incubated for 1 h at 37° C. The plate was washed 6 times with PBST, and 80 μL/well TMB (tetramethylbenzidine) was added. After 3 min of incubation at room temperature, and 80 μL/well 4M sulfuric acid was added to terminate the reaction. The absorbance at […] was read with a microplate reader.

[7] = molecular target: T7, MICB*005α3-Fc fusion protein; experiment: ELISA, MICB*005α3-Fc coated
T7 construct: also called MICBα3*005 variant
Source text: as §1, §2

Measured: binding result

T3 sequence (chain, as listed by the source limits assumed): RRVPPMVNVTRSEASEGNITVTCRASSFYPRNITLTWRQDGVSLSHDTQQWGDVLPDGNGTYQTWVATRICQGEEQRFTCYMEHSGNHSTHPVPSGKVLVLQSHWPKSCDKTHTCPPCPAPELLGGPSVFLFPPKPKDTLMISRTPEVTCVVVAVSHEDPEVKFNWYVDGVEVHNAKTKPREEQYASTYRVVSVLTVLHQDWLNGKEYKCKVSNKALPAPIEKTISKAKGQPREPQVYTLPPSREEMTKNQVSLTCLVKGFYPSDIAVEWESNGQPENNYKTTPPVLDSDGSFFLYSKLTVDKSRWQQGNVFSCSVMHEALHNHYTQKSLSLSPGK
T6 sequence (chain, as listed by the source limits assumed): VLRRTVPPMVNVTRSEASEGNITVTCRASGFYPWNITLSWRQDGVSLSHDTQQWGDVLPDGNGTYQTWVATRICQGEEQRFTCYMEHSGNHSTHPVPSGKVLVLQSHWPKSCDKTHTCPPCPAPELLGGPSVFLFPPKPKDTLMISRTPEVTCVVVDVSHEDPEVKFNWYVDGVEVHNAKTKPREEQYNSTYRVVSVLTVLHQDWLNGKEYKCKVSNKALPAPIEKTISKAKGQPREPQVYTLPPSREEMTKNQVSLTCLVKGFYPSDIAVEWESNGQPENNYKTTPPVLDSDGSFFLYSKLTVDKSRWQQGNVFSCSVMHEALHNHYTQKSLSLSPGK
T2 sequence (chain, as listed by the source limits assumed): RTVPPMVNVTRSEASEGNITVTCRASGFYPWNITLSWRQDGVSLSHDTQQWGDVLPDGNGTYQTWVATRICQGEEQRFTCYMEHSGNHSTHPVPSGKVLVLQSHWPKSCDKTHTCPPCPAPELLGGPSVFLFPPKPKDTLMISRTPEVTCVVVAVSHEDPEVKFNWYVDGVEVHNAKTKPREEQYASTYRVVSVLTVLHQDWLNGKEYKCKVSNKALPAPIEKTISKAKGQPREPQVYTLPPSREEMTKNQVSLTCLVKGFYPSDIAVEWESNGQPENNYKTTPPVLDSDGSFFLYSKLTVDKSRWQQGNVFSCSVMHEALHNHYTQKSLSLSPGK
T5 sequence (chain, as listed by the source limits assumed): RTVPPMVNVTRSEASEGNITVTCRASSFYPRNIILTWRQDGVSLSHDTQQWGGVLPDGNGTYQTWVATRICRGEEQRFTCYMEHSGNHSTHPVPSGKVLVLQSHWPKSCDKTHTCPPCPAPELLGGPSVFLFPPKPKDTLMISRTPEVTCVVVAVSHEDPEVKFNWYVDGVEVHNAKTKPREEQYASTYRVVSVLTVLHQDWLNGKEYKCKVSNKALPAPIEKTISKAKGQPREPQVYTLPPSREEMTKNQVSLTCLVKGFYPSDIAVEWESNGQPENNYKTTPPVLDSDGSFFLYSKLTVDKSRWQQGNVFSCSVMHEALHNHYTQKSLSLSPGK
T7 sequence (chain, as listed by the source limits assumed): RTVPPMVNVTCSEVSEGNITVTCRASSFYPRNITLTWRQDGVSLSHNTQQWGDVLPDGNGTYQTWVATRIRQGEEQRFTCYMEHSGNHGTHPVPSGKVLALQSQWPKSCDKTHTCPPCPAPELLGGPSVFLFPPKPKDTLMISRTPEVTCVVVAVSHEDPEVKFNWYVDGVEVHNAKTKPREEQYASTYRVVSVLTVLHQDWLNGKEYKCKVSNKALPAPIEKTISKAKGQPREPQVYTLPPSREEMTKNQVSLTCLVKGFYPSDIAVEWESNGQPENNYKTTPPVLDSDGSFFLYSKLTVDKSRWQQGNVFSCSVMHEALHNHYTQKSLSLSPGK

B1: MICA antibody 5A1 (murine monoclonal antibody against human MICA) (antibody, V domains shown)
VH: QVQLKQSGPGLVQPSQSLSITCIVSGFSLTTYGVHWVRQSPGKGLEWLGMIWTDGTTDYNAAFISRLSINKDNSKSQVFLKMNSLQADDTGIYYCVRKGHGYYYAMDYWGQGTSVTVSS
VL: QILLTQSPAILSASLGERVTMTCTASSSVSSSYLHWYQQKPGSSPKLWIYSTSNLASGVPARFSGGGSGTSYSLTVSNMEAEDAATYYCHQYHRSPFTFGSGTKLEIK
notes: Murine monoclonal antibody from a hybridoma; also called No. 5A1; the antibody of the present disclosure
binds: [1] | [2] | [3] | [4] | [5] | [6] | [7]

Reference: patent US20240166752A1 (HEFEI TG IMMUNOPHARMA, published 2024)
